T1: human p40-His (human, UniProt P29460 23-328)
T1 construct: Made by Akeso Biopharma; construct limits and tag not described; also called human IL-12/IL-23 p40 protein domain; human IL-12/IL-23 p40; not shown: His tag
T1 sequence (looked up): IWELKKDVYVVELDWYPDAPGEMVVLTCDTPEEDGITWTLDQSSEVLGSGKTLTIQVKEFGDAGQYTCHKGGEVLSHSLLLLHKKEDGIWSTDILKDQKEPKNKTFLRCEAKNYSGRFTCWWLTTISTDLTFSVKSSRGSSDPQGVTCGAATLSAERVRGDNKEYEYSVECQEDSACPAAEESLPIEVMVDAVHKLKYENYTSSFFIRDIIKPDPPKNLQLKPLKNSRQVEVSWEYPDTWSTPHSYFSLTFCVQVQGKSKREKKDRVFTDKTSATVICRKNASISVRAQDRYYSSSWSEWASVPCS

T2: Human IL12 (His Tag) (human, UniProt P29459 23-219; P29460 23-328)
T2 construct: Bought His-tagged heterodimer
T2 sequence (looked up) 1: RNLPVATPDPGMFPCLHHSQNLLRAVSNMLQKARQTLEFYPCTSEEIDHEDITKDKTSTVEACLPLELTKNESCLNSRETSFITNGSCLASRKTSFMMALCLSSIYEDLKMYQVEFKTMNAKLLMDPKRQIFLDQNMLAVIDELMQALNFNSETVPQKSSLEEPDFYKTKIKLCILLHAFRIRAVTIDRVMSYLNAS
T2 sequence (looked up) 2: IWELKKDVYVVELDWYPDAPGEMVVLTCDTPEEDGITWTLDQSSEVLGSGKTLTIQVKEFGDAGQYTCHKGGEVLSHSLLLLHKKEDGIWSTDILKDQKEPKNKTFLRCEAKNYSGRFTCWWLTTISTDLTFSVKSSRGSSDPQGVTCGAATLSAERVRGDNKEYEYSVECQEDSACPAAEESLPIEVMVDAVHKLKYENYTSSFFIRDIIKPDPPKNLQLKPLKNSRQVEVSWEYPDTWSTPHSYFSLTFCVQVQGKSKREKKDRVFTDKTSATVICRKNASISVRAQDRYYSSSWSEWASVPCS

T3: human IL-23 (IL-23-His-Biotin) (human, UniProt Q9NPF7 20-189; P29460 23-328, biotin label, site not stated)
T3 construct: Akesobio lot 20161209; His-tagged and biotinylated
T3 sequence (looked up) 1: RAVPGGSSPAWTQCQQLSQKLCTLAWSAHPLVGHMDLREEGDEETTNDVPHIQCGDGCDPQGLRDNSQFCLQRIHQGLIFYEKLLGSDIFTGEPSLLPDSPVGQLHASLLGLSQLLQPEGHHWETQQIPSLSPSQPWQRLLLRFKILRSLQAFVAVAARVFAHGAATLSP
T3 sequence (looked up) 2: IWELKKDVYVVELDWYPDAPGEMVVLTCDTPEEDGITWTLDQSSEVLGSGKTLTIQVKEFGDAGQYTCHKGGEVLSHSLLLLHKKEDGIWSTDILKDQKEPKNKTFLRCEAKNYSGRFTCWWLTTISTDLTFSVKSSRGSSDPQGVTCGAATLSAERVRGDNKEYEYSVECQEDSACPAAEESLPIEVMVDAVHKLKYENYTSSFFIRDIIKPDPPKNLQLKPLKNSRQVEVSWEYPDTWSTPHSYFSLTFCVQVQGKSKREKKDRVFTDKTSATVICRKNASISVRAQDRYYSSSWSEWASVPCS


Tests used:
human p40-His = target: T1, human p40-His; assay: BLI (Fortebio), p40-His on HIS1K sensor, antibody 5-0.31 nM, 37 °C, 1:1 fit
Protocol: The sample dilution buffer for H5L9, H5L10, H5L11, H5L12, H5L14, H8L15, Ab123FR1 and ustekinumab was PBS (0.02% Tween-20, 0.1% BSA, pH 7.4). p40-His was immobilized on a HIS1K (manufacturer: Fortebio, Cat. No.: 18-5120) sensor at a concentration of 1 μg/mL for 40 s. The sensor was equilibrated in a buffer for 60 s, and the p40-His immobilized on the sensor bound to the antibody at a concentration of 5-0.31 nM (two-fold dilution) for 120 s, and then the protein dissociated in the buffer for 300 s. The sensor was refreshed with 10 mM glycine solution (pH=1.5). The detection temperature was 37° C., the detection frequency was 0.3 Hz, and the sample plate shaking rate was 500 rpm. The data were analyzed by 1:1 model fitting to obtain affinity constants.

Human IL12 (His Tag) [1] = target: T2, Human IL12 (His Tag); assay: FACS competition, IL-12-His 20 nM on 293T-IL-12Rβ1&IL-23R cells; antibody 10 µg/mL
Protocol: (§1) 200 μL of 1% PBSA was added into each sample, and the mixture was centrifuged at 700×g for 5 min to discard the supernatant. According to experiment design, correspondingly diluted antibody (highest final concentration of 30 μg/mL, 3-fold dilution, 8 concentrations in total) and human IL-12 (Sino Biological, Cat. No.: CT-050-H08H-20) (final concentration of 20 nM) were mixed at a ratio of 1:1, and a blank control was set. The mixture of antibody and human IL12 was incubated on ice for 30 min and then added to the cell precipitate at 100 μL/sample. The resulting mixture was well mixed and incubated on ice for 60 min 200 μL of 1% PBSA was added, and the mixture was centrifuged at 700×g for 5 min to discard the supernatant, and then washed twice. Alexa Fluor® 488 anti-His tag antibody (Biolegend, Cat. No.: 652509) was diluted at a ratio of 1:400 and added to each tube at 100 μL. The mixture was well mixed and incubated on ice for 40 min in the absence of light. 200 μL of 1% PBSA was added, and the mixture was centrifuged at 700×g for 5 min to discard the supernatant, and then washed twice. 1% PBSA was added at 200 μL/tube, and the cells were resuspended and transferred to a flow cytometry tube for testing.

Human IL12 (His Tag) [2] = target: T2, Human IL12 (His Tag); assay: FACS competition, IL-12-His 20 nM on 293T-IL-12Rβ1&IL-23R cells; antibody 0.12 µg/mL
Protocol: as §1

Human IL12 (His Tag) [3] = target: T2, Human IL12 (His Tag); assay: FACS competition, IL-12-His 20 nM on 293T-IL-12Rβ1&IL-23R cells; antibody 3.33 µg/mL
Protocol: as §1

[4] = target: T3, human IL-23 (IL-23-His-Biotin); assay: FACS competition, IL-23-His-Biotin 2 µg/mL on 293T-IL-12Rβ1&IL-23R cells; antibody 0.04 µg/mL
Protocol: (§2) 200 μL of 1% PBSA was added into each sample, and the mixture was centrifuged at 700×g for 5 min to discard the supernatant. According to experiment design, correspondingly diluted antibody (highest final concentration of 30 μg/mL, 3-fold dilution, 8 concentrations in total) and human IL-23 (IL-23-His-Biotin, Akesobio, 20161209) (final concentration of 2 μg/mL) were mixed at a ratio of 1:1, and a blank control was set. The mixture of antibody and human IL23 was incubated on ice for 30 min and then added to the cell precipitate at 100 μL/sample. The resulting mixture was well mixed and incubated on ice for 60 min. 200 μL of 1% PBSA was added, and the mixture was centrifuged at 700×g for 5 min to discard the supernatant, and then washed twice. FITC Steptavidin (Biolegend, Cat. No.: 405202) was diluted at a ratio of 1:500 and added to each tube at 100 μL. The mixture was well mixed and incubated on ice for 40 min in the absence of light. 200 μL of 1% PBSA was added, and the mixture was centrifuged at 700×g for 5 min to discard the supernatant, and then washed twice. 1% PBSA was added at 200 μL/tube, and the cells were resuspended and transferred to a flow cytometry tube for testing.

[5] = target: T3, human IL-23 (IL-23-His-Biotin); assay: FACS competition, IL-23-His-Biotin 2 µg/mL on 293T-IL-12Rβ1&IL-23R cells; antibody 0.37 µg/mL
Protocol: as §2

Row | Kd (human p40-His) [nM] | S E (kon) (human p40-His) [M⁻¹ s⁻¹] | S E(kdis) (human p40-His) [s⁻¹] | koff (human p40-His) [s⁻¹] | kon (human p40-His) [M⁻¹ s⁻¹] | MFI (Human IL12 (His Tag) [1]) [MFI] | MFI (Human IL12 (His Tag) [2]) [MFI] | MFI (Human IL12 (His Tag) [3]) [MFI] | MFI [4] [MFI] | MFI [5] [MFI] | Binder
1 | 0.136 | 232000 | 0.000144 | 0.000428 | 3.15e+06 | 33.9 | 145 | 42.2 | 224 | 179 | H5L11 (antibody, human IgG1, kappa, V domains shown, human IgG1 / kappa constant regions; also called humanized antibody H5L11) VH: EVQLVQSGAEVKKPGESLKISCQSSGYSFTTYWIGWVRQMPGQGLEWIGIMSPVDSDIRYNPMFRGQVTMSVDKSSSTAYLQWSSLKASDTAMYYCARRRPGQGYFDFWGQGTMVTVSS VL: EIVLTQSPATLSASPGERATISCRASQSVSSWLAWYQQKPGQAPRSLIYSASNLQSGIPARFSGSGSGTDFTLTISSLEPEDFAVYYCQQYNIYPYTFGQGTRLEIKR
2 | 0.062 | 236000 | 0.000158 | 0.000182 | 2.94e+06 | 46.3 | 146 | 51.9 | 216 | 179 | H5L14 (antibody, human IgG1, kappa, V domains shown, human IgG1 / kappa constant regions; also called humanized antibody H5L14) VH: EVQLVQSGAEVKKPGESLKISCQSSGYSFTTYWIGWVRQMPGQGLEWIGIMSPVDSDIRYNPMFRGQVTMSVDKSSSTAYLQWSSLKASDTAMYYCARRRPGQGYFDFWGQGTMVTVSS VL: EIVLTQSPATLSASPGERATISCRASQSVSSWLAWYQQKPGQAPRSLIYAASNLQSGIPARFSGSGSGTDFTLTISSLEPEDFAVYYCQQYNIYPFTFGQGTRLEIKR
3 | 0.0905 | 212000 | 0.000124 | 0.000348 | 3.84e+06 | 32.4 | 133 | 31.8 | 234 | 177 | H5L12 (antibody, human IgG1, kappa, V domains shown, human IgG1 / kappa constant regions; also called humanized antibody H5L12) VH: EVQLVQSGAEVKKPGESLKISCQSSGYSFTTYWIGWVRQMPGQGLEWIGIMSPVDSDIRYNPMFRGQVTMSVDKSSSTAYLQWSSLKASDTAMYYCARRRPGQGYFDFWGQGTMVTVSS VL: EIVLTQSPATLSASPGERATISCRASQSVSSWLAWYQQKPGQAPRSLIYAASNRQSGIPARFSGSGSGTDFTLTISSLEPEDFAVYYCQQYNIYPYTFGQGTRLEIKR

Source: patent publication US20220298235A1 (AKESO BIOPHARMA, published 2022)
